Target: T1, human full-length glucose transporter GLUT-1 (human, UniProt P11166 1-492)
T1 sequence (looked up): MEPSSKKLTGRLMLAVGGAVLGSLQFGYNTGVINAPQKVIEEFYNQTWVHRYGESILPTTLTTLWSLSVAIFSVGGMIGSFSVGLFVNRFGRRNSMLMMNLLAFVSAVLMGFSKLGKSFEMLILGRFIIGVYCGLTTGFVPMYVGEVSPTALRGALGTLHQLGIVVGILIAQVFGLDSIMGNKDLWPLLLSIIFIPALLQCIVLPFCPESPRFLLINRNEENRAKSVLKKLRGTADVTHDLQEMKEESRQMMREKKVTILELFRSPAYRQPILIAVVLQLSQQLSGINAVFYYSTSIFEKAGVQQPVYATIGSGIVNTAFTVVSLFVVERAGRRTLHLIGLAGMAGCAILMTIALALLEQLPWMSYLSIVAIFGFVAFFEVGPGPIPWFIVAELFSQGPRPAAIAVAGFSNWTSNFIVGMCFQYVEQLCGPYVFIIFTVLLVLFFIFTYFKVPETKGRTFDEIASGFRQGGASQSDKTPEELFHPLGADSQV
Experiment: SPR

- Kd: 22.3 nM
- koff: 0.0016 s⁻¹
- kon: 120000 M⁻¹ s⁻¹
B1: Nb-GLUT-1 (VHH)
VHH: QVQLLESGGGLVQPGGSLRLSCAASGFTFSSYAMSWVRQAPGKGLEWVSTITAKGRQTYYADSVKGRFTISRDNSKNTLYLQMNSLRAEDTAVYYCATGPMYQPQFGSWGQGTLVTVSS

Reference: paper PMC4208029 (Scientific Reports, 2014)
